Data reported in patent US20060034833A1 (published 2006).

B1: mouse IFN-gamma (ligand, UniProt P01580 23-155, looked up)
chain: HGTVIESLESLNNYFNSSGIDVEEKSLFLDIWRNWQKDGDMKILQSQIISFYLRLFEVLKDNQAISNNISVIESHLITTFFSNSKAKKDAFMSIAKFEVNNPQVQRQAFNELIRVVHQLLPESSLRKRKRSRC
notes: Used biotinylated (biotinamidocaproic acid 3-sulfo N-hydroxysuccinimide ester) in the assays; also called mouse IFN-γ; biotinylated mouse IFN-γ

Columns and labels:
[1] = target: T1, mouse IFN-γ receptor (IFN-γ R1/Fc) (mouse, UniProt P15261 26-253, limits assumed); test: ELISA: biotinylated mouse IFN-γ on coated mouse IFN-γ R1/Fc, Extravidin-AP
T1 construct: Bought Fc fusion, coated on plates; not shown: Fc part of the bought fusion; not described
T1 sequence (looked up): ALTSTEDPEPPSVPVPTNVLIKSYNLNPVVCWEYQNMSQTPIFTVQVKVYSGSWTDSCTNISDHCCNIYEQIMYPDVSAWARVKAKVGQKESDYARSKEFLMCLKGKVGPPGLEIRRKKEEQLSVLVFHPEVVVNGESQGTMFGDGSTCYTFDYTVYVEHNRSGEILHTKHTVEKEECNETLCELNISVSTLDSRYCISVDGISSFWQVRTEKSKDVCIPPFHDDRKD
Method: 96-well microtiter plates were coated with human IFN-γ receptor (IFN-γ R1 (R&D Systems, Cat Nr: 673-IR/CF) or mouse IFN-γ receptor (IFN-γ R1/Fc (R&D Systems, Cat Nr:1026-GR) at 1 μg/ml in PBS overnight at 4° C. Plates were washed 5 times with PBS/0.05% Tween-20. Plates were blocked for 2 hrs at room temperature using PBS+1% Caseine. A dilution serie of biotinylated human or mouse IFN-γ was incubated for 1 hr at room temperature. Plates were washed 5 times with PBS/0.05% Tween-20. Binding was detected using Extravidin-AP and pNPP. Plates were read at 405 nm after 30 minutes incubation at room temperature.

mouse IFN-gamma = target: B1; test: ELISA screening of selected clones on captured biotinylated mouse IFN-γ (Examples 7 and 8)
Method: To examine the clones selected using biotinylated human or mouse IFN-γ, wells were coated with neutravidine at a concentration of 2 μg/ml overnight at 4° C. Plates were washed 5 times with PBS/0.05% Tween-20. Wells were blocked with 1% caseine for 2 hrs at room temperature. Biotinylated mouse or human IFN-γ at a concentrabon of 1 μg/ml was captured overnight at 4° C. Plates were washed 5 times with PBS/0.05% Tween-20. Culture supernatant (⅓ diluted) was applied to the wells. Detection was performed using anti-c-myc antibody, followed by anti-mouse-HRP and ABTS/H₂O₂ as substrate. Plates were read at 405 nm after 30 minutes incubation at room temperature.

human IFN-gamma [2] = target: T2, human IFN-gamma (human, UniProt P01579 24-166); test: competition ELISA: VHH pre-incubated with biotinylated human IFN-γ, coated human IFN-γ receptor
T2 construct: The cell-based assays used IFN-γ 'expressed in CHO'; also called human IFN-γ; Interferon gamma
T2 sequence (looked up): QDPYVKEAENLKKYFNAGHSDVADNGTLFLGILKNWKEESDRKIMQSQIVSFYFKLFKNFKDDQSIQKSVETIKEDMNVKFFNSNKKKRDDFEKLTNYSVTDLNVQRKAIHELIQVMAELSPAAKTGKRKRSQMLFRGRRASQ
Method: Mouse or human IFN-γ receptor was coated at a concentration of 1-2 μg/ml overnight at 4° C. Plates were washed 5 times with PBS/0.05% Tween-20. Wells were blocked with 1% caseine overnight at 4° C. VHH was pre-incubated with 20 ng biotinylated human or mouse IFN-γ for 30 minutes at room temperature. The mixture was applied to the wells and incubated for 1 hr at room temperature. Detection was performed using Extravidin-AP and pNPP as substrate. Plates were read at 405 nm after 30 minutes incubation at room temperature. Abcam AB 7812 polyclonal antibody was used as a positive control showing a dosis-dependent inhibition of human IFN-γ/IFN-γ receptor as presented in FIG. 7.
As presented in Table 6, a dose-dependent inhibition assay to determine the IC50 was performed for representative clones of each sequence family.

human IFN-gamma [3] = target: T2, human IFN-gamma; test: cell-based or functional assay

Binder | binding result [1] | binding result (mouse IFN-gamma) | IC50 (human IFN-gamma [2]) [µg/mL] | IC50 (nM), cell-based inhibition assay (FS4 cells treated with IFN-γ pre-incubated with VHH, EMC virus, MTT) (human IFN-gamma [3]) [nM]
B1 | binds | – | – | –
MP6 C11 BR (VHH, Llama VHH selected on mouse IFN-γ) VHH: QVQLQESGGGLVQAGGSLRLSCAASGRTFSTYAMGWFRQAPGKEREFVAGITSSGGYTYYADSVKGRFTISRDNAKNTVYLQMNSLKPEDTAVYYCAAGFRVGIALDLKGRYDYWGQGTQVTVSS | – | binds | – | –
MP6 B10 BR (VHH, Llama VHH selected on mouse IFN-γ) VHH: QVQLQDSGGGLVQLGGSLRLSCAISGRILGSYAVGWFRQAPGKERQFVAAIGWSYGNTYYADSVKGRFTISRDNAKNTVYLQINSLKPEDTAVYYCAAGDTYLTGRPNEYAYWGQGTQVTVSS | – | binds | – | –
MP6 A8 BR (VHH, Llama VHH selected on mouse IFN-γ) VHH: QVQLQESGGGLVQAGGSLRLSCAASGFTFDDYAIGWFRQAPGKELEGVSMINSGGGSTYYADSVKGRFTISSDNAKNTVYLQMNSLKPEDTAVYYCAADQNARLFRLWVVTGTGPVDNALDAWGQGTLVTVSS | – | binds | – | –
MP2F6SR (VHH) VHH: QVKLEESGGGLVQAGGSLRLSCAASGRTFNNYNMGWFRQAPGKEREFVAAISWNGGSTYYDDSVKGRFTISRDNANNLVYLQMNSLNFEDTAVYYCACAANPYGIPQYRENRYDFWGQGTQVTVSS | – | – | 1.75 | 1500
MP6 B1 BR (VHH, Llama VHH selected on mouse IFN-γ) VHH: QVQLQESGGGLVQAGGSLRLSCAASGFTSDDYAIGWFRQAPGKEREGVSCISSSDGVTYYADSVKGRFTISSDNAKNTVYLQMNSLKPEDTAVYYCAADSLPLCFSGSYYHPYEYDYLGQGTQVTVSS | – | binds | – | –
MP3B1SRA (VHH) VHH: QVQLQESGGGLVQPGGSLRLSCAASGFTSSNYAMSWVRQAPGKGLEWVSSINSRTGSITYADSVKGRFTITLDNAKNTLYLQMNSLKPEDTAVYYCASRVDDRVSRGQGTQVTVSS | – | – | 20 | 9000
MP4C10SR (VHH) VHH: QVQLQESGGGLVQPGGSLRLSCAASGFTVSNYAMSWVRQPPGKGIEWVSSINNRNDHITYADSVKGRFTIARDNANNILYLQMNSLKPEDTAVYYCASRVDDRVSRGQGTQVTVSS | – | – | > 200 | 200000
MP3A7SRA (VHH) VHH: QVQLQDSGGGLVQAGGSLRLSCAASGRTFSSFRMGWFRRAPGEEREFVAFVRSNGTSTYYADSVEGRFTITRDNAKNTVYLRMDSLKPEDTAVYYCAAATRDYGGSFDYWGQGTQVIVSS | – | – | 5 | 9000
MP2F1BR (VHH) VHH: AVQLVESGGGLVQTGDSLRLSCVASGGTFSRYAMGWFRQAPGKEREFVARIGYSGRSISYATSVEGRFAISRDNAKNTVYLQMNSLKPEDTAVYYCASLVSGTLYQADYWGQGTQVTVSS | – | – | 8 | 5000
MP3C7SRA (VHH) VHH: QVQLQESGGGLVQAGDSLRLSCAASGRSFSSYGMGWFRQAPGKEHEFVAGIWRSGVSLYYADSVKGRFTISRDDAKMTVSLQMNSLKPEDTAVYYCAAEATFPTWNRGRFADYDYSGQGTQVTVSS | – | – | > 200 | 7500
MP3F1SRA (VHH) VHH: QVQLQESGGGLVQAGGSLTLSCVASGRTISDYAVGWFRQAPGKEREFVASISWGGGFTAFADSMKGRFTISRDNAKNTVYLQTHTLEPDDTSVYYCASSRRYCTGYRCYATASEFDSWGQGTQVTVSS | – | – | 8 | 9000
MP6 B12 BR (VHH, Llama VHH selected on mouse IFN-γ) VHH: QVQLQESGGGLVQAGGSLRLSCAASGFTFDDYDIGWFRQAPGKEREEVSCISNIDGSTYYADSVKGRFTISSDNAKNTAYLQMSSLKPEDTAVYYCAADIYVRCVHGLSPGYWGQGIQVTVSS | – | binds | – | –
MP3D2BR (VHH) VHH: QVQLQESGGGLVQPGESLRLSCAASRGIFRFNAGGWYRQAPGKQRELVAFIGVDNTTRYIDSVKGRFTISRDNAKTTVYLQMNSLQPEDTAVYYCNKVPYIDWGQGTQVTVSS | – | – | 4 | 9000
MP2F6SR/MP2F6SR (VHH) QVKLEESGGGLVQAGGSLRLSCAASGRTFNNYNMGWFRQAPGKEREFVAAISWNGGSTYYDDSVKGRFTISRDNANNLVYLQMNSLNFEDTAVYYCACAANPYGIPQYRENRYDFWGQGTQVTVSSEPKTPKPQPAAAQVKLEESGGGLVQAGGSLRLSCAASGRTFNNYNMGWFRQAPGKEREFVAAISWNGGSTYYDDSVKGRFTISRDNANNLVYLQMNSLNFEDTAVYYCACAANPYGIPQYRENRYDFWGQGTQVTVSS | – | – | – | 0.15
MP6 D6 BR (VHH, Llama VHH selected on mouse IFN-γ) VHH: QVQLQESGGGLVQAGGSLRLSCAVSGSIFSLLAMGWFRQAPGKERELVASVSTHSNTNYADSVKGRFTISRDNAKNTVYLQMNSLKPEDTAVYYCNAGGRYSARVYWGQGTQVTVSS | – | binds | – | –
MP3C1SR (VHH) VHH: QVQLQDSGGGLVQAGGSLRLSCAAAGISGSVFSRTPMGWYRQAPGKQRELVAGILSSGATVYAESVKGRFTISRDNAKNTVYLQMNSLSPEDTAEYYCNTYPTWVLSWGQGTQVTVSS | – | – | > 200 | 9000
